In patent US20220088190A1 (published 2022):

T1: RAS G12V peptide on HLA-A*11:01 (human)
T1 peptide: VVVGAVGVGK

T2: RAS G12C peptide on HLA-A*11:01 (human)
T2 peptide: VVVGACGVGK

T3: RAS wild type peptide on HLA-A*11:01 (human)
T3 peptide: VVVGAGGVGK

T4: RAS G12V peptide on HLA-A*03:01 (human)
T4 peptide: VVVGAVGVGK

T5: RAS G12V peptide on HLA-A*11:01 (human)
T5 peptide: VVGAVGVGK

T6: RAS wild type peptide on HLA-A*11:01 (human)
T6 peptide: VVGAGGVGK

T7: RAS G12C peptide on HLA-A*11:01 (human)
T7 peptide: VVGACGVGK

T8: RAS G12D peptide on HLA-A*11:01 (human)
T8 peptide: VVGADGVGK

T9: RAS G12C peptide on HLA-A*03:01 (human)
T9 peptide: VVVGACGVGK

T10: RAS G12D peptide on HLA-A*03:01 (human)
T10 peptide: VVVGADGVGK

T11: RAS G12R peptide on HLA-A*03:01 (human)
T11 peptide: VVVGARGVGK

T12: RAS wild type peptide on HLA-A*03:01 (human)
T12 peptide: VVVGAGGVGK

T13: RAS G12R peptide on HLA-B*07:02 (human)
T13 peptide: GARGVGKSAL

T14: RAS G12C peptide on HLA-B*07:02 (human)
T14 peptide: GACGVGKSAL

T15: RAS G12V peptide on HLA-B*07:02 (human)
T15 peptide: GAVGVGKSAL

T16: RAS G12D peptide on HLA-B*07:02 (human)
T16 peptide: GADGVGKSAL

T17: RAS wild type peptide on HLA-B*07:02 (human)
T17 peptide: GAGGVGKSAL


Key:
[1] = target: T1, RAS G12V peptide on HLA-A*11:01; test: multimer staining
[2] = target: T2, RAS G12C peptide on HLA-A*11:01; test: activation reporter or marker
[3] = target: T3, RAS wild type peptide on HLA-A*11:01; test: killing
[4] = target: T4, RAS G12V peptide on HLA-A*03:01; test: cytokine release
[5] = target: T5, RAS G12V peptide on HLA-A*11:01; test: multimer staining
[6] = target: T6, RAS wild type peptide on HLA-A*11:01; test: activation reporter or marker
[7] = target: T7, RAS G12C peptide on HLA-A*11:01; test: activation reporter or marker
[8] = target: T8, RAS G12D peptide on HLA-A*11:01; test: activation reporter or marker
[9] = target: T4, RAS G12V peptide on HLA-A*03:01; test: multimer staining
[10] = target: T9, RAS G12C peptide on HLA-A*03:01; test: activation reporter or marker
[11] = target: T10, RAS G12D peptide on HLA-A*03:01; test: activation reporter or marker
[12] = target: T11, RAS G12R peptide on HLA-A*03:01; test: activation reporter or marker
[13] = target: T12, RAS wild type peptide on HLA-A*03:01; test: killing
[14] = target: T13, RAS G12R peptide on HLA-B*07:02; test: multimer staining
[15] = target: T14, RAS G12C peptide on HLA-B*07:02; test: activation reporter or marker
[16] = target: T15, RAS G12V peptide on HLA-B*07:02; test: activation reporter or marker
[17] = target: T16, RAS G12D peptide on HLA-B*07:02; test: activation reporter or marker
[18] = target: T17, RAS wild type peptide on HLA-B*07:02; test: activation reporter or marker
[19] = target: T17, RAS wild type peptide on HLA-B*07:02; test: killing

binding result [1]	binding result [2]	binding result [4]	binding result [14]	binding result [15]	binding result [16]	binding result [17]	Binder	binding result [3]	further results
recognises	recognises	no recognition					TCR833 (TCR, V domains shown) Valpha: RKEVEQDPGPFNVPEGATVAFNCTYSNSASQSFFWYRQDCRKEPKLLMSVYSSGNEDGRFTAQLNRASQYISLLIRDSKLSDSATYLCAVNPPDTGFQKLVFGTGTRLLVSP Vbeta: DVKVTQSSRYLVKRTGEKVFLECVQDMDHENMFWYRQDPGLGLRLIYFSYDVKMKEKGDIPEGYSVSREKKERFSLILESASTNQTSMYLCASSLSFRQGLREQYFGPGTRLTVT	no recognition	
			recognises	no recognition	no recognition	no recognition	TCR864 (TCR, V domains shown) Valpha: LAKTTQPISMDSYEGQEVNITCSHNNIATNDYITWYQQFPSQGPRFIIQGYKTKVTNEVASLFIPADRKSSTLSLPRVSLSDTAVYYCLVGDFNSNSGYALNFGKGTSLLVTP Vbeta: GAGVSQSPSNKVTEKGKDVELRCDPISGHTALYWYRQRLGQGLEFLIYFQGNSAPDKSGLPSDRFSAERTGESVSTLTIQRTQQEDSAVYLCASKVYGYTFGSGTRLTVV		binding result [19]: no recognition

Continued, binder first:

Binder	binding result [1]	binding result [2]	binding result [4]	binding result [14]	binding result [15]	binding result [16]	binding result [17]	binding result [3]	further results
TCR831 (TCR, V domains shown) Valpha: ELKVEQNPLFLSMQEGKNYTIYCNYSTTSDRLYWYRQDPGKSLESLFVLLSNGAVKQEGRLMASLDTKARLSTLHITAAVHDLSATYFCAVDKDGGYQKVTFGTGTKLQVIP Vbeta: GAVVSQHPSWVICKSGTSVKIECRSLDFQATTMFWYRQFPKQSLMLMATSNEGSKATYEQGVEKDKFLINHASLTLSTLTVTSAHPEDSSFYICSASPRAGQLSSYNSPLHFGNGTRLTVT	recognises	recognises	no recognition					no recognition	
TCR897 (TCR, V domains shown) Valpha: SQQGEEDPQALSIQEGENATMNCSYKTSINNLQWYRQNSGRGLVHLILIRSNEREKHSGRLRVTLDTSKKSSSLLITASRAADTASYFCATDPGGFKTIFGAGTRLFVKA Vbeta: EAGVAQSPRYKIIEKRQSVAFWCNPISGHATLYWYQQILGQGPKLLIQFQNNGVVDDSQLPKDRFSAERLKGVDSTLKIQPAKLEDSAVYLCASSLYGGSISYEQYFGPGTRLTVT									binding result [5]: recognises; binding result [6]: no recognition; binding result [7]: recognises; binding result [8]: recognises
TCR896 (TCR, V domains shown) Valpha: AQKVTQAQTEISVVEKEDVTLDCVYETRDTTYYLFWYKQPPSGELVFLIRRNSFDEQNEISGRYSWNFQKSTSSFNFTITASQVVDSAVYFCALSEAGTYKYIFGTGTRLKVLA Vbeta: DSGVTQTPKHLITATGQRVTLRCSPRSGDLSVYWYQQSLDQGLQFLIQYYNGEERAKGNILERFSAQQFPDLHSELNLSSLELGDSALYFCASSVAGGGQETQYFGPGTRLLVL									binding result [9]: recognises; binding result [10]: no recognition; binding result [11]: no recognition; binding result [12]: no recognition; binding result [13]: no recognition
TCR847 (TCR, V domains shown) Valpha: SQQGEEDPQALSIQEGENATMNCSYKTSINNLQWYRQNSGRGLVHLILIRSNEREKHSGRLRVTLDTSKKSSSLLITASRAADTASYFCATFPNFGNEKLTFGTGTRLTIIP Vbeta: DAGITQSPRHKVTETGTPVTLRCHQTENHRYMYWYRQDPGHGLRLIHYSYGVKDTDKGEVSDGYSVSRSKTEDFLLTLESATSSQTSVYFCAISESERYYEQYFGPGTRLTVT				recognises	no recognition	no recognition	no recognition		binding result [18]: no recognition
